The target in assay [1] is human neonatal Fc receptor (human) (UniProt P55899). Description: SPR.
Assay [2] addresses adalimumab (human). Nature of the assay: BLI.
For assay [3], the target named is adalimumab (human). Description: BLI. The source holds these as a separate data set. Background: In BLI a coated tip is dipped into the sample, and binding shifts an interference pattern.

Like-named read-outs stand apart in the source and are kept apart here.

Sequence of UniProt P55899 (P55899 24-297): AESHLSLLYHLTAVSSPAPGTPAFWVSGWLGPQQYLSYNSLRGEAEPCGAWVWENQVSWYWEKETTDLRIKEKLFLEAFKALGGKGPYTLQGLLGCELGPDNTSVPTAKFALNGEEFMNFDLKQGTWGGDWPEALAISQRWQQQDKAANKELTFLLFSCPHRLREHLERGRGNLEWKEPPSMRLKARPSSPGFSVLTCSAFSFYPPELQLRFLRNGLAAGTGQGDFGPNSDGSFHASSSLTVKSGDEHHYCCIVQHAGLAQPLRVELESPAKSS

For adalimumab (antibody), in assay [1], the KD1 stood at 8.77 nM, the KD2 is 467 nM, the ka1 was 906000 M⁻¹ s⁻¹ and the ka2 turned out to be 362000 M⁻¹ s⁻¹. Moreover, in assay [1], the kd1 amounted to 0.0073 s⁻¹ and the kd2 was determined as 0.141 s⁻¹.

“recombinant human tumor necrosis factor (from UniProt P01375 77-233) (ligand)”: in assay [2], the dissociation constant (Kd) came to 4.6 pM, the koff was 5.5e-06 s⁻¹ and the association rate constant (kon) came out at 1.32e+06 M⁻¹ s⁻¹. This substance also came in with a koff in assay [3] of 4.81e-05 s⁻¹.

One may read the Kd as the concentration at which binding is half-saturated. A high value points to lower affinity. As a reminder, the koff is the first-order rate constant of dissociation. A low value points to a long-lived complex. The kon is the rate constant with which the complex forms.

The values are drawn from paper PMC4622719.
